Here are results for 1 molecule from patent publication US8095350.

In the assay the target is T1, Human APOBEC-2 (APO2) containing residues 41-224 (human), Q9Y235.
T1 chain: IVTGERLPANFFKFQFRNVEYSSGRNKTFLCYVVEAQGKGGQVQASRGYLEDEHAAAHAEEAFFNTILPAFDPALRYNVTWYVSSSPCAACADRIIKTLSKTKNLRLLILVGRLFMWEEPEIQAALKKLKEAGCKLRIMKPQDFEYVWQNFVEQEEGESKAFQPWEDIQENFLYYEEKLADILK
The assay can be described thus: X-ray crystal structure, tetramer interface. The following applies: remark: other sources report otherwise.

B1: Human APOBEC-2 (APO2) containing residues 41-224, Q9Y235 41-224 (enzyme, UniProt Q9Y235 41-224, looked up)
chain: T1 chain
In turn, B1 gave a total buried area within the tetramer interface of 1740 Å^2.
